Test results published in US20150044245A1, “PARTIAL MHC CONSTRUCTS AND METHODS OF USE” (Oregon Health & Science University, priority 2012, published 2015).
Where two headings read alike, the source gives them in different places.

Key:
CD74 [1] = target: T1, CD74 (Mus musculus, UniProt P04441); assay: Coimmunoprecipitation of FITC-labeled constructs with CD74; type: binding; conditions: FITC-labeled construct, bead-immunopurified CD74
T1 construct: DR*1501-Tg splenocytes were biotinylated and lysed as described above and CD74 was immunoprecipitated overnight; endogenous in cells; host or cells: splenocytes of DR*1501-Tg mice (surface-biotinylated, lysed in 1% CHAPS/TEN; CD74 captured on Protein L / ln-1 beads)
T1 sequence (P04441 1-215 isoform P04441-2): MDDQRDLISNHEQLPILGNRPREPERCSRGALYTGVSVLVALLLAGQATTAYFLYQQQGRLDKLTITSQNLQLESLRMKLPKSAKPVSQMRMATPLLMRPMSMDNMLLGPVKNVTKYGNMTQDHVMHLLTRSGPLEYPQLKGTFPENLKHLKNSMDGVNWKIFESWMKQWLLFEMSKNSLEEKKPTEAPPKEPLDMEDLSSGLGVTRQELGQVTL
Procedure: For immunoprecipitation experiments, antibody TU39 (BD Pharmingen) was pre-bound to bead-conjugated Protein A for 2 hours in ice-cold TEN-TX100 or TEN-CHAPS followed by RTL binding to these complexes. Lysate (previously pre-cleared with bead-conjugated Protein A) was added to the tube and binding was carried out overnight at 4° C. with soft orbital shaking Samples were extensively washed with TEN buffer and the appropriate detergent. For CD74 immunoprecipitation, ln-1 mAb was adsorbed to bead-conjugated Protein L as described above and pre-cleared lysate was added to this mixture. When necessary, bound material was eluted by boiling the immune complexes in electrophoresis sample buffer and analyzed by SDS-PAGE and Western blot.
(§1) For direct binding of RTL constructs, Protein-L/ln-1/CD74 complexes were prepared as described above. Labeled ligand constructs were incubated for 4 hours at 4° C. in 1% CHAPS in TEN buffer and free ligand was removed by extensive washing. Elution of bound proteins was carried out as described above and the eluate was analyzed by SDS-P AGE. […] In all assays involving fluorescent labeling, the chromophore was detected by scanning at the appropriate wavelength using a Molecular Imager® FX scanner (Bio-Rad) and the fluorescence intensity was determined using Quantity One® software (Bio-Rad) associated with the imager.

CD74 [2] = target: T1, CD74; assay: Competition with labeled RTL1000 for binding to immunoprecipitated CD74; conditions: unlabeled competitor
Procedure: as §1

CD74 [3] = target: T2, CD74 (Mus musculus, UniProt P04441); assay: CD74 cell-surface expression on CD11b+ monocytes in vitro (FACS); type: cell-based; conditions: naïve CD11b+ monocytes, 1 hour at 37° C.
T2 construct: endogenous in cells; host or cells: CD11b+ monocytes of DR2 (DR*1501)-Tg mice: naive blood cells in vitro; blood, spleen and spinal cord cells of treated EAE mice
T2 sequence (P04441 1-279): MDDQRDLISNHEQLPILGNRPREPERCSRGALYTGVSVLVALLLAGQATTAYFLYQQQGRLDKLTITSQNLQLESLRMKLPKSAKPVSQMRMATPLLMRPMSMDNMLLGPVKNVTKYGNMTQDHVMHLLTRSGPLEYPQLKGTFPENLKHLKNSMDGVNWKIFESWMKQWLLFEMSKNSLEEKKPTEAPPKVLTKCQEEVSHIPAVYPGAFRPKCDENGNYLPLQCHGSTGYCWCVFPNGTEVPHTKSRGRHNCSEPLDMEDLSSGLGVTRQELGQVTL
Procedure: Analysis of naive DR2 PBMC subtypes was preformed using four-color (fluorescein isothiocyanate (FITC), phycoerythrin (PE), propidium iodide, allophycocyanin) flow cytometry. Blood was collected from naive DR2 mice through cardiac exsanguination into 1X PBS/EDTA. After washing blood in 1X PBS, the red blood cells were lysed with 1X RBC lysis buffer (eBioscience, Inc., San Diego, Calif.) followed by two washes in RPMI. One million cells were incubated in RPMI with 1 μg unlabeled pDR2, 1 μg pDR2FITC, or 1 μg Fab Neutralized pDR2FITC for one hour at 37° C. For samples assessing Fab neutralization of pDR2 binding, pDR2s were incubated with 1:1 molar ratio of Fab1B11 or FabD2 for two hours at room temperature prior to incubation with cells, pDR2 incubation was followed directly by a 30 minute incubation at 4° C. with CD3 PE (ebioscience, Inc., San Diego, Calif.), CD74 PE (Santa Cruz Biotechnology, Inc., Santa Cruz, Calif.), or CD11b PE, CD11b allophycocyanin, CD11c allophycocyanin, CD19 allophycocyanin (BD Pharmingen, San Diego, Calif.). Antibodies and pDR2 were thoroughly removed by two additional washes in 1X PBS/0.5% BSA staining media. Cells were resuspended in staining media containing propidium iodide and immediately analyzed with a FACSCALIBUR™ using FCS EXPRESS™ software (BD Biosciences, San Jose, Calif.). […]

[4] = system: mMOG-35-55-induced EAE in DR*1501-Tg mice; conditions: for effect on EAE (in words): mMOG-35-55-induced EAE
[5] = target: MHC class II from DR*1501-Tg mice; assay: Direct binding of FITC-labeled constructs to MHC class II immuno-adsorbed from CD74-depleted lysate; set-up: species or system mouse; conditions: FITC-labeled ligand, read-out: MHC Class II One binding site KD
Procedure: (§2) In order to test ligand binding to the separate components of the RTL receptor, DR*1501-Tg splenocytes were biotinylated and lysed as described above and CD74 was immunoprecipitated overnight at 4° C. with the anti-CD74 monoclonal antibody ln-1. Immune complexes (Protein L-beads/ln-1/CD74) were analyzed for their ability to bind FITC-labeled pDR2RTL constructs by performing a direct binding saturation with increasing concentration of the different constructs (0 to 10 nM). Binding was carried out for 4 hours at 4° C. with gentle shaking and in the presence of 1% CHAPS in TEN buffer. Afterwards the complexes were washed thoroughly with 1% CHAPS/TEN and once with only TEN buffer to remove excess detergent. Bound proteins were eluted in 2% SDS electrophoresis sample buffer at 90° C. for 6 to 8 minutes and beads were sedimented. After the supernatant was collected and proteins separated using 10-20% SDS-PAGE, the gel was scanned for FITC chromophore and quantified by densitometry. Ligand concentration was plotted versus the fluorescence intensity of the bands and the curve generated was fit to one or two binding sites with the GraphPad Prism® Software. […] Direct binding to saturating concentrations of the pDR2 constructs was carried out and analyzed as described above.

CD74 [6] = target: T1, CD74; assay: Direct binding of FITC-labeled constructs to immuno-adsorbed CD74; conditions: FITC-labeled ligand, immuno-adsorbed CD74, 4 hours at 4° C., 1% CHAPS; read-out: CD74 One binding site KD
Procedure: as §2

[7] = system: MBP-85-99-induced EAE in MBP-TCR/DR2-Tg mice
Procedure: HLA-DR2 positive male and female mice between 8 and 12 weeks of age were immunized subcutaneously at four sites on the flanks with 0.2 ml of an emulsion of 200 μg immunogenic peptide and complete Freund's adjuvant containing 400 μg of heat-killed Mycobacterium tuberculosis H37RA (Difco, Detroit, Mich.) (Vandenbark et al, J Immunol 171:127-133, 2003; Buenafe et al, Immunology 130:114-124, 2010). In addition, mice were given pertussis toxin (Ptx) from List Biological Laboratories (Campbell, Calif.) on days 0 and 2 post-immunization (75 ng and 200 ng per mouse, respectively). Immunized mice were assessed daily for clinical signs of EAE on a 6 point scale of combined hind limb and forelimb paralysis scores. For hind limb scores: 0=normal; 0.5=limp tail or mild hind limb weakness (e.g., a mouse cannot resist inversion after a 90° turn of the base of the tail); 1=limp tail and mild hind limb weakness; 2=limp tail and moderate hind limb weakness (e.g., an inability of the mouse to rapidly right itself after inversion); 3=limp tail and moderately severe hind limb weakness (e.g., inability of the mouse to right itself after inversion and clear tilting of hind quarters to either side while walking); 4=limp tail and severe hind limb weakness (hind feet can move but drag more frequently than face forward); 5=limp tail and paraplegia (no movement of hind limbs). Front limb paralysis scores are either 0.5 for clear restriction in normal movement or 1 for complete forelimb paralysis. The combined score is the sum of the hind limb score and the forelimb score.
(§3) Rarely, there was mortality of HLA-DR2 mice with severe EAE and in these cases, mice were scored as a 6 for the remainder of the experiment. Mean EAE scores and standard deviations for mice grouped according to initiation of RTL or vehicle treatment were calculated for each day and summed for the entire experiment (Cumulative Disease Index, CDI, represents total disease load). Daily mean scores were analyzed by a two-tailed Mann Whitney U test for nonparametric comparisons between vehicle and pDR2 treatment groups. Mean CDIs were analyzed by a one way ANOVA with Tukey post-test, and a nonparametric one way Kruskal-Wallis ANOVA with Dunn's multiple comparisons post-test to confirm significance between all groups.
(§4) pDR2 constructs (Table 3) were injected subcutaneously daily for 5 days at the indicated doses to treat EAE induced in HLA-DR2-Tg and MBP-TCR/DR2-Tg mice and clinical signs were scored as described above. […] Fab1B11 alone in vehicle was run as a negative control.

[8] = system: hMOG-35-55-induced EAE in DR*1502-Tg mice; conditions: treated at disease onset
Procedure: In addition, mice were given pertussis toxin (Ptx) from List Biological Laboratories (Campbell, Calif.) on days 0 and 2 post-immunization (75 ng and 200 ng per mouse, respectively). Immunized mice were assessed daily for clinical signs of EAE on a 6 point scale of combined hind limb and forelimb paralysis scores. For hind limb scores: 0=normal; 0.5=limp tail or mild hind limb weakness (e.g., a mouse cannot resist inversion after a 90° turn of the base of the tail); 1=limp tail and mild hind limb weakness; 2=limp tail and moderate hind limb weakness (e.g., an inability of the mouse to rapidly right itself after inversion); 3=limp tail and moderately severe hind limb weakness (e.g., inability of the mouse to right itself after inversion and clear tilting of hind quarters to either side while walking); 4=limp tail and severe hind limb weakness (hind feet can move but drag more frequently than face forward); 5=limp tail and paraplegia (no movement of hind limbs). Front limb paralysis scores are either 0.5 for clear restriction in normal movement or 1 for complete forelimb paralysis. The combined score is the sum of the hind limb score and the forelimb score.
as §3, §4

CD80 = CD80 expression on CD11b+ monocytes from spinal cord of treated EAE mice; type: in vivo, mouse; conditions: day 15 post-immunization
Procedure: EAE was induced in mice by immunization with mMOG-35-55. At disease onset, the mice were treated with one of the following constructs: (i) pDR2 with covalently bound mMOG-35-55 (100 μg), (ii) pDR2 without peptide (1000 μg), (iii) DR-α1 (750 μg), or (iv) vehicle alone. The constructs were administered subcutaneously for two sequential days. On day 15 post-immunization, mice were sacrificed and spinal cords were harvested and pooled for each group. Isolated cells were stained for CD74, CD11b, CD80, ICAM, and HLA-DR expression and analyzed by FACS.

[9] = MBP-TCR/DR2-Tg mice, treated for five days following onset
[10] = DR*1501-Tg mice, mMOG-35-55/CFA/Ptx EAE, treated at disease onset

B1: DR-α1: construct comprising DR-α1 domain alone (with no DR2-β1 domain or peptide) (protein)
chain: IKEEHVIIQAEFYLNPDQSGEFMFDFDGDEIFHVDMAKKETVWRLEEFGRFASFEAQGALANIAVDKANLEIMTKRSNYTPITN
- coimmunoprecipitation with CD74 (in words) (CD74 [1]): coimmunoprecipitated with CD74
- competition with pDR2/hMOG-35-55 for binding to CD74 (in words) (CD74 [2]): competed with pDR2/hMOG-35-55 for binding to CD74
- CD74 expression versus construct binding/concentration (in words) (CD74 [3]): inverse relationship between pMHC concentration and CD74 expression
- CDI ([4]; 100 μg daily X2 (Table 12)): 32.9 ± 7.8
- Incidence ([4]; 100 μg daily X2 (Table 12)): 4/4
- Mortality ([4]; 100 μg daily X2 (Table 12)): 0
- Onset ([4]; 100 μg daily X2 (Table 12)): 10.0 ± 1.2
- Peak ([4]; 100 μg daily X2 (Table 12)): 2.6 ± 0.5
- CDI ([4]; 300 μg daily X2 (Table 12)): 24.1 ± 10.3
- Incidence ([4]; 300 μg daily X2 (Table 12)): 11/11
- Mortality ([4]; 300 μg daily X2 (Table 12)): 0
- Onset ([4]; 300 μg daily X2 (Table 12)): 9.5 ± 0.8
- Peak ([4]; 300 μg daily X2 (Table 12)): 2.3 ± 0.6
- CDI ([4]; 500 μg daily X2 (Table 12)): 20.7 ± 12.7
- Incidence ([4]; 500 μg daily X2 (Table 12)): 10/10
- Mortality ([4]; 500 μg daily X2 (Table 12)): 0
- Onset ([4]; 500 μg daily X2 (Table 12)): 9.6 ± 0.7
- Peak ([4]; 500 μg daily X2 (Table 12)): 2.5 ± 0.7
- CDI ([4]; 1000 μg daily X2 (Table 12)): 21.1 ± 9.9
- Incidence ([4]; 1000 μg daily X2 (Table 12)): 6/6
- Mortality ([4]; 1000 μg daily X2 (Table 12)): 0
- Onset ([4]; 1000 μg daily X2 (Table 12)): 10.7 ± 1.0
- Peak ([4]; 1000 μg daily X2 (Table 12)): 2.3 ± 0.4
- effect on EAE (in words) [4]: lower than those treated with vehicle alone
- Kd [5]: > 10 nM

B2: RTL302-5D: Human HLA DR2 (DRB1*1501/DRA*0101) β1α1 domains (V102D, I104D, A106D, F108D, L110D), no peptide (protein)
chain: MGDTRPRFLWQPKRECHFFNGTERVRFLDRYFYNQEESVRFDSDVGEFRAVTELGRPDAEYWNSQKDILEQARAAVDTYCRHNYGVVESFTVQRRVIKEEHDIDQDEDYDNPDQSGEFMFDFDGDEIFHVDMAKKETVWRLEEFGRFASFEAQGALANIAVDKANLEIMTKRSNYTPITN
- Kd (CD74 [6]): > 10 nM
- coimmunoprecipitation with CD74 (in words) (CD74 [1]): also coimmunoprecipitated with CD74, but at much lower levels
- effect on EAE (in words) ([7]; MBP-85-99-induced EAE): ineffective at treating EAE
- CDI [7, 9]: 43.3 ± 12.0
- Incidence [7, 9]: 6/6
- Mortality [7, 9]: 0
- Onset [7, 9]: 17.5 ± 5.0
- Peak [7, 9]: 3.7 ± 0.8
- CDI ([8]; cumulative disease index): 36.8 ± 7.1
- Incidence ([8]; hMOG-35-55/CFA/Ptx EAE): 6/6
- Onset ([8]; hMOG-35-55/CFA/Ptx EAE): 15.0 ± 1.7
- Peak ([8]; peak clinical EAE score): 2.9 ± 0.5
- Mortality [8]: 0
- CDI ([4]; 100 μg x 5 (Table 11)): 43.1 ± 10.6
- Incidence ([4]; 100 μg x 5 (Table 11)): 9/9
- Mortality ([4]; 100 μg x 5 (Table 11)): 0
- Onset ([4]; 100 μg x 5 (Table 11)): 11.7 ± 1.1
- Peak ([4]; 100 μg x 5 (Table 11)): 3.3 ± 0.9
- CDI ([4]; 1 mg x 2 (Table 11)): 34.2 ± 6.2
- Incidence ([4]; 1 mg x 2 (Table 11)): 3/3
- Mortality ([4]; 1 mg x 2 (Table 11)): 0
- Onset ([4]; 1 mg x 2 (Table 11)): 9.0 ± 0.0
- Peak ([4]; 1 mg x 2 (Table 11)): 2.8 ± 0.3
- Incidence [4, 10]: 9/9
- Onset [4, 10]: 11.7 ± 1.1
- Mortality ([4]; DR*1501-Tg mice, treated at disease onset): 0
- CDI ([4]; cumulative disease index, DR*1501-Tg mice, treated at disease onset): 42.9 ± 10.7
- effect on EAE (in words) ([4]; listed as pDR2/no peptide): significant reduction of daily and cumulative EAE scores compared to treatment with vehicle
- effect on EAE (in words) ([4]; listed as pDR2 without peptide): lower than those treated with vehicle alone
- Peak ([4]; peak clinical EAE score, DR*1501-Tg mice, treated at disease onset): 3.3 ± 0.9
- Kd [5]: > 10 nM
- CD80 expression (in words) (CD80): decreased
